Experimental data taken from paper PMC9263355.

What was measured:
[1] = target: 4-1BB on CD3/CD28-activated human CD4 T cells (human (endogenous in CD4 T cells)) (UniProt Q07011)
[2] = target: recombinant human galectin-8N (human); test: fluorescence polarisation; fluorescence anisotropy in solution, by inhibition: fixed galectin (0.2-2.5 µM) with 0.02 µM of its fluorescent probe, in the presence of 0.07-[…] (rh)4-1BB Fc or (rh)IgG1 Fc; average Kd from the points with ≥ 15% inhibition
[3] = target: recombinant human galectin-9C (human); test: as above
[4] = target: recombinant human galectin-9N (human); test: as above

recombinant human (rh)4-1BB Fc chimera protein, sequence (Q07011 24-186, change not shown): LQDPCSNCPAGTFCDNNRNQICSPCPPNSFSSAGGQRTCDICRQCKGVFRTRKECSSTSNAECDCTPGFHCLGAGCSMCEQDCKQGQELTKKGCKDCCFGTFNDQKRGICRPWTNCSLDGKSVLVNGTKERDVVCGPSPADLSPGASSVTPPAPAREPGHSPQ
4-1BB on CD3/CD28-activated human CD4 T cells (human (endogenous in CD4 T cells)), sequence (Q07011 24-255): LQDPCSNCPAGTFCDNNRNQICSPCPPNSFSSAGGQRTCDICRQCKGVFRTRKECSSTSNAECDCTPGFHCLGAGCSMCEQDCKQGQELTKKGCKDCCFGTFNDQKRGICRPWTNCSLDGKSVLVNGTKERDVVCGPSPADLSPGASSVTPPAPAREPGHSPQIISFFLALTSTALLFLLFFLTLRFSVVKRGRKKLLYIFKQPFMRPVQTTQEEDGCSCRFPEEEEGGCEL
Gal-3 in normal human plasma, sequence (P17931 whole entry): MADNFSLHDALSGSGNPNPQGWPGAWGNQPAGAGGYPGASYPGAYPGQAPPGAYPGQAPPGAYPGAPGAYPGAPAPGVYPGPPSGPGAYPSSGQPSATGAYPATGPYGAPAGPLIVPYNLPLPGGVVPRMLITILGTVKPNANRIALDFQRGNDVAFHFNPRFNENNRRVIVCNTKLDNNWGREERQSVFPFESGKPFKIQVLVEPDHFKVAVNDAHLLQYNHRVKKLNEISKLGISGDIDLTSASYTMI

## Gal-3 in normal human plasma (from UniProt P17931 1-250) (natural protein)
[1]
  fold decrease in fraction of 4-1BB+CD4+ T cells that produced TNFα upon 4-1BBL stimulation, after pre-incubation of activated CD4 T-cells with plasma: 3.8 fold

## recombinant human (rh)4-1BB Fc chimera protein (from UniProt Q07011 24-186) (Fc fusion)
[2]
  Kd: 3590 nM
[3]
  Kd: 2240 nM
[4]
  Kd: 1390 nM
